Assay results reported in patent publication EP4624485A1, “PEPTIDE THAT TARGETS MACROPHAGES AND USES THEREOF” (Consejo Superior De Investigaciones Científicas, priority 2024, dated 2025).
Bridge positions count the residues as written; N and C are the ends. Ends that are not written are not given here. Peptide text beside a SMILES is read from it. * marks the point of attachment. 5FAM = O=C1OC2(c3ccc(O)cc3Oc3cc(O)ccc32)c2ccc(C(=O)*)cc21; Vert = not defined here; Ahx = NCCCCCC(=O)O

T1: human recombinant CD206 (Homo sapiens, UniProt P22897)
T1 construct: purchased R&D systems 2534-MR-050/CF
T1 sequence (P22897 19-1456): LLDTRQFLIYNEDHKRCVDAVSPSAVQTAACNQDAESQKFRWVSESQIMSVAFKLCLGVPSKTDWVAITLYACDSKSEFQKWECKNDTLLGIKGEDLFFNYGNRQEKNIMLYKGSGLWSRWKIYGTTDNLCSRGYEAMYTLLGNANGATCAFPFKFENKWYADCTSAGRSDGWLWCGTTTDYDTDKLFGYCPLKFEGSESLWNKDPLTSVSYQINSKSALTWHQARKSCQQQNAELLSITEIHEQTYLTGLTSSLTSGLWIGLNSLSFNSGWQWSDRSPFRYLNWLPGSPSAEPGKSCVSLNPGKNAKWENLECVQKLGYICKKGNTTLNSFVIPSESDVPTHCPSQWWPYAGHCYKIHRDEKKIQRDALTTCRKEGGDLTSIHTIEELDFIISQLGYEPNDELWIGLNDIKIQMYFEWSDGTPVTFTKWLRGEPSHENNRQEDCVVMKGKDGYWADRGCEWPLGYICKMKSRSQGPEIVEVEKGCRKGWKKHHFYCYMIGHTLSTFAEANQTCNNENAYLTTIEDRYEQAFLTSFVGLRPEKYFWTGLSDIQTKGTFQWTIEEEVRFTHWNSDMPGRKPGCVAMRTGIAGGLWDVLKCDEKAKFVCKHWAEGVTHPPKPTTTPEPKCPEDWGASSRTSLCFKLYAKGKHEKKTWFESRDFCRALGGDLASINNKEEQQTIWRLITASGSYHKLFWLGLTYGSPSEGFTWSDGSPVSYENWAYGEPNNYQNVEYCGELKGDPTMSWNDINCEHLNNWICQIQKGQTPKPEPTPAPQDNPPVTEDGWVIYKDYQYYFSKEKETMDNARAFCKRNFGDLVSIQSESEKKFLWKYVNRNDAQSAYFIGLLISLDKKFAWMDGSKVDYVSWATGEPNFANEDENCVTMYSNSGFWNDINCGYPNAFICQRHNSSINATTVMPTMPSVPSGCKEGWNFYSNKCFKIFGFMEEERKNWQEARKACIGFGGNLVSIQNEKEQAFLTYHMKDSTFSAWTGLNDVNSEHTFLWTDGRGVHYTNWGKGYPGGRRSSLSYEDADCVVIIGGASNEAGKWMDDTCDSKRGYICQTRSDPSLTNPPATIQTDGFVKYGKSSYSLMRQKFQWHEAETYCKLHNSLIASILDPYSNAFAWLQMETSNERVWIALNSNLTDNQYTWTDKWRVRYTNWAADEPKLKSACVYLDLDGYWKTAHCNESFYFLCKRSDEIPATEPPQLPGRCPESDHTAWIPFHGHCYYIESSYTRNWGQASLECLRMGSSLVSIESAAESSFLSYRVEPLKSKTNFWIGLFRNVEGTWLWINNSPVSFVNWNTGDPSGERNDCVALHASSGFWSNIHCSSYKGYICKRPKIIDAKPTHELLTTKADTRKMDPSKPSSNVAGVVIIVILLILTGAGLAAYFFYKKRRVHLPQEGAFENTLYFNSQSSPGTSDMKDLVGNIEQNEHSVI

T2: human recombinant CD206 (Cat # 2534-MR-050/CF from R&D systems) (human, UniProt P22897 19-1383, limits assumed)
T2 construct: Bought recombinant protein; also called Macrophage Mannose Receptor 1; PAH/CD206 multilayer
T2 sequence: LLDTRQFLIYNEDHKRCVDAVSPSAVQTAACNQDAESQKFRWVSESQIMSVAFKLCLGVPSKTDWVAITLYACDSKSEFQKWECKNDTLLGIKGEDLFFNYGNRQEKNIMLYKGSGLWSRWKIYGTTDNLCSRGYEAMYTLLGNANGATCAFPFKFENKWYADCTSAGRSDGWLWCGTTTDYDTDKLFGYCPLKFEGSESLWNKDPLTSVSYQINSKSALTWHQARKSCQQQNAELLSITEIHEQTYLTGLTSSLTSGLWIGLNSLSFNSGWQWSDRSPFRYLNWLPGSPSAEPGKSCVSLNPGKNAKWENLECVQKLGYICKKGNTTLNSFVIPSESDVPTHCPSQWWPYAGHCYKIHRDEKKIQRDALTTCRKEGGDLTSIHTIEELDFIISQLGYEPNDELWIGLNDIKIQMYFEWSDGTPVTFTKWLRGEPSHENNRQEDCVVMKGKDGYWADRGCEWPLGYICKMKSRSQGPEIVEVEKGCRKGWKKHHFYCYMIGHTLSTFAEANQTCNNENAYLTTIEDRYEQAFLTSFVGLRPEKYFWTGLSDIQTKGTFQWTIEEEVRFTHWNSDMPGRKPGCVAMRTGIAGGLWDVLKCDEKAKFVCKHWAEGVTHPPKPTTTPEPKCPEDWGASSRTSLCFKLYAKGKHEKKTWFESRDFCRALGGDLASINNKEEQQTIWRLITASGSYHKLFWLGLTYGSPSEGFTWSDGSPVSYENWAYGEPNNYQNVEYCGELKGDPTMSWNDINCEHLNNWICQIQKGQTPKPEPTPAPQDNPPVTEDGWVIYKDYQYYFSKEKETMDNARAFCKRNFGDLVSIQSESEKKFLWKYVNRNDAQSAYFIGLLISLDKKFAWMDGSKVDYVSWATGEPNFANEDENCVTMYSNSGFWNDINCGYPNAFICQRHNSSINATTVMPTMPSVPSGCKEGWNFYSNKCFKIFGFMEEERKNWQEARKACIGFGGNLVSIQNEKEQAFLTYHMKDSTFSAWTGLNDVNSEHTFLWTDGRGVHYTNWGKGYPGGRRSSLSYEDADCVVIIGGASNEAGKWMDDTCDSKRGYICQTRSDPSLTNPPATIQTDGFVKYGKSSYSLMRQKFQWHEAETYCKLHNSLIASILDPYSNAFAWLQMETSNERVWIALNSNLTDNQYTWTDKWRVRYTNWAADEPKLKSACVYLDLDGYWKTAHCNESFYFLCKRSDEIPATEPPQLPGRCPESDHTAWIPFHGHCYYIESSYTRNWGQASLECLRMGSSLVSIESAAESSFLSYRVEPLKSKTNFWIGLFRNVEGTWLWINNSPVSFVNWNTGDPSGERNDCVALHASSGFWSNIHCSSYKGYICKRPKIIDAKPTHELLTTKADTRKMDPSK


Assays:
[1] = biological target: T1, human recombinant CD206; assay: Quartz Crystal Microbalance (QCM) binding to PAH/CD206 multilayer; details: peptides 10µM in PBS, curve fitting, read-out: constant of association
Text: To confirm the capacity of MACTIDE to bind to CD206, we evaluated binding to recombinant CD206 included in a viscoelastic film, using Quartz Crystal Microbalance (QCM). QCM is a powerful technique used to study label-free ligand-receptor interactions in solution (Baltus, R. E. et al., Langmuir 2007, 23 (7), 3880-3885), wherein peptide binding and dissociation is sensed through a mass increase or decrease on a resonating crystal surface functionalized with the receptor. Here, we evaluated the mass changes of MACTIDE when binding and dissociating in solution to CD206 immobilized on a viscoelastic film, deposited on a gold-modified quartz crystal resonating at 5 MHz. […]
The Quartz Crystal Microbalance (QCM) used was QCM200 system from Stanford Research Systems (Sunnyvale, CA, USA). […] Then, a baseline with 500µL of mQ at pH 8 was recorded, the measurement was paused and then 5µL of a 1mg/mL solution in PBS were added (human recombinant CD206, Cat # 2534-MR-050/CF from R&D systems, reconstituted with 50µL of mQ); final concentration of CD206 in the cell: 0.01 mg/mL. […] For peptides, 500µL of PBS were placed in the cell and the baseline was recorded, the measurement was then paused and 50µL of a 100µM solution of peptides in PBS were gently deposited on the cell and the measurement was resumed. […]

[2] = mouse, in vivo
Method: (§1) Thirty nmoles of FAM-MACTIDE or FAM-mUNO were administered i.p., i.v. or orally and left to circulate for 24 h. At 24 h, the mice were sacrificed, and the organs were collected, fixed, cryoprotected, sectioned, and immunostained for FAM and CD206 (colocalization can be seen in the images as brigh areas) (A). The CD206/FAM colocalization indices were calculated from representative images from N=3 tumors using imaged (Mandler's tM2 index) (B, C, D) and the signal intensity per number of CD206+ TAMs was quantified using imaged for the i.p. administration (C). (E): Pharmacokinetics of i.p. and i.v. administered FAM-MACTIDE (30 nmoles) analyzed by detecting plasma fluorescence in the FAM channel at different timepoints (N=3). […] A: Structure of VERMACTIDE. B: VERMACTIDE, Vert-CtrlPep and DOX (doxorubicin) were incubated with primary human M2 macrophages (obtained from monocytes derived from human blood) at 30µM for one hour at 37°C, followed by 2 washes with medium. Then, the groups shown in red were irradiated with 10 J/cm^2 (irradiance: of 170 mW/cm^2, spot diameter: 0.5 cm).

[3] = tested on: IL4-stimulated macrophages; assay: In vitro photodynamic therapy, MTT cell viability, IL4-stimulated macrophages; type: cell-based, human; details: with and without irradiation, 30µM
Method: as §1

[4] = tested on: (LPS + IFNy)-stimulated macrophages; assay: In vitro photodynamic therapy, MTT cell viability, (LPS + IFNγ)-stimulated macrophages; type: cell-based, human; details: with and without irradiation, 30µM
[5] = biological target: T3, Bovine Serum Albumin (BSA, Cat # A7906, Sigma-Aldrich) (bovine, UniProt P02769 25-607); assay: QCM, peptide in PBS on PAH/BSA control multilayer
T3 construct: Control protein deposited on PAH as the control multilayer; also called PAH/BSA control multilayer
T3 sequence (P02769 25-607 limits assumed): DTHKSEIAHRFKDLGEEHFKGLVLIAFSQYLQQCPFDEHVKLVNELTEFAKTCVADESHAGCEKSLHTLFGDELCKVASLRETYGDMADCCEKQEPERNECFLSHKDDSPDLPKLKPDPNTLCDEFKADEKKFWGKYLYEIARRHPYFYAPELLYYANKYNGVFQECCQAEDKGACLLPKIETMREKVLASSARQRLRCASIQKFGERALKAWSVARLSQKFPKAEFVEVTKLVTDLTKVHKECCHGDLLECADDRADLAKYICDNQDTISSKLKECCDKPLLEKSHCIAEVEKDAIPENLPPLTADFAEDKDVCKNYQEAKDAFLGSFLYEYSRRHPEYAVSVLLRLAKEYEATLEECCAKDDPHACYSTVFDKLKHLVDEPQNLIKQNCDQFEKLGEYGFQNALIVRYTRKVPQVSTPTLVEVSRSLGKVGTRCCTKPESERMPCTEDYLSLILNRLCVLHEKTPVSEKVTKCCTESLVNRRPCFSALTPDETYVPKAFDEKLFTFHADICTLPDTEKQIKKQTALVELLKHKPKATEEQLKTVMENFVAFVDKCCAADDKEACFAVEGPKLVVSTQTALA

[6] = biological target: T2, human recombinant CD206 (Cat # …); assay: QCM, PAH/CD206 multilayer, curves fitted with TraceDrawer
[7] = biological target: T2, human recombinant CD206 (Cat # …); assay: QCM (summary of example 3, Fig. 3)

Molecule	kon at 10 µM [1]	binding result [5]	Kd [6]	koff [6]	kon [6]	also measured
CSPGAK [mUNO, CSPGAK]	1400 M⁻¹ s⁻¹	–	–	–	–	–
CC[C@H](C)[C@@H]1NC(=O)[C@@H]2CCCN2C(=O)[C@@H]2CCCN2C(=O)[C@H]([C@@H](C)CC)NC(=O)[C@H](CO)NC(=O)[C@H](CCCCN)NC(=O)[C@H]([C@@H](C)O)NC(=O)[C@@H](NC(=O)CN)CSSC[C@@H](C(=O)N[C@@H](CO)C(=O)N2CCC[C@H]2C(=O)NCC(=O)N[C@@H](C)C(=O)N[C@@H](CCCCN)C(=O)O)NC1=O [MACTIDE, GCTKSIPPICSPGAK] (H-GCTKSIPPICSPGAK-OH; disulfide 2-10)	650 M⁻¹ s⁻¹	–	–	–	–	–
CC[C@H](C)[C@@H]1NC(=O)[C@@H]2CCCN2C(=O)[C@@H]2CCCN2C(=O)[C@H]([C@@H](C)CC)NC(=O)[C@H](CO)NC(=O)[C@H](CCCCN)NC(=O)[C@H]([C@@H](C)O)NC(=O)[C@@H](NC(=O)CNC(=O)CCCCCNC(=O)c2ccc3c(c2)C(=O)OC32c3ccc(O)cc3Oc3cc(O)ccc32)CSSC[C@@H](C(=O)N[C@@H](CO)C(=O)N2CCC[C@H]2C(=O)NCC(=O)N[C@@H](C)C(=O)N[C@@H](CCCCN)C(=O)O)NC1=O [FAM-MACTIDE] ({5FAM-Ahx}-GCTKSIPPICSPGAK-OH; disulfide 2-10)	–	–	–	–	–	blood half-life [2]: the same as those obtained previously for FAM-mUNO
Vert-CtrlPep: control conjugate, Vert-Ahx- on AKPCGS (SEQ ID NO: 8) ({Vert-Ahx}-AKPCGS; reading uncertain)	–	–	–	–	–	toxicity [3]: no toxicity; toxicity [4]: no toxicity

More lines, main results first:

kon at 10 µM [1]	binding result [5]	Kd [6]	koff [6]	kon [6]	Molecule	also measured
–	no binding (tested: 10µM)	6 µM	0.0087 s⁻¹	1400 M⁻¹ s⁻¹	CSPGAK (also called mUNO peptide) [mUNO]	–
–	no binding (tested: 10µM)	0.38 µM	0.00025 s⁻¹	650 M⁻¹ s⁻¹	GCTKSIPPICSPGAK (disulfide 2-10, Monocyclic through the C2-C10 disulfide; also called the peptide of the invention) [MACTIDE]	fold higher affinity (against mUNO) [7]: 15 fold; fold slower dissociation constant against mUNO [6]: 30 fold
